Consider 1 molecule from publication PMC11287749, “Optical Aptamer-Based Cytokine Nanosensor Detects Macrophage Activation by Bacterial Toxins”.

This data set concerns the target IL-6 (human recombinant, Invitrogen) (Homo sapiens, UniProt P05231 30-212). In words: SWCNT NIR fluorescence; PBS, 5250 ng/mL IL-6, 3 h; p = 0.66; 0.5 mg/L SWCNT-ssDNA in 1x PBS (or 1x PBS + 10% FBS), 5250 ng/mL IL-6, 120 uL, up to 180 min; pH and temperature not stated in the material. The following applies: protein: commercial.

Chain of IL-6 (human recombinant, Invitrogen) (P05231 30-212): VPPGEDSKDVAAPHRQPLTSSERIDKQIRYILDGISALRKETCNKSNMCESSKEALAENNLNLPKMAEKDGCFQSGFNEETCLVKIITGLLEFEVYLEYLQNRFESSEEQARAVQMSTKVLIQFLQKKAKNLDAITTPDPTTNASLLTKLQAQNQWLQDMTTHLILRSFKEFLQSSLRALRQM

As to GTGTGTGTGTGTGTGTGTGTGTGTGTGTGT (ssDNA, noncovalently adsorbed on SWCNT) [(GT)15 control], the binding result is “no binding”.
